# Test results: the nanobody polyreactivity screen of Harvey et al. (2022)
# Test: yeast display, Sf9 membrane polyspecificity reagent, FACS + sequencing; frameworks hold sequencing errors
# In short: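 Nanobodies came from a synthetic yeast display library in Saccharomyces cerevisiae BJ5465, induced with galactose for 36–48 hours and stained for 1 hour at 4 °C with 10% biotinylated, detergent-solubilized Sf9 membrane reagent. Cells were enriched on streptavidin microbeads and then FACS-sorted, with low and high (top ~1%) gates set on anti-HA fluorescence for expression and streptavidin fluorescence for reagent binding. Each polyreactivity label reflects the gate a clone came from. Genes were amplified by colony PCR, sequenced by MiSeq 2 × 250 and filtered by CDR length.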
row,Sequence,polyreactivity (PSR sort gate)
1,QVQLVESGGGLVQAGGSLRLSCAASGFTFVVYDMGWYRQAPGKESELVAVINNSGGSTYYADSVKGRFTISRDNAKNTVSLQMNSLKPEDTAVYYCATRTPVWVNTESDYWGQGTQVTVSS,low polyreactivity
2,QVQLVESGGGLVQAGGSLRLSCAASGSTFPANAMGWYRQAPGKERELVATISWSGGRTYYADSVKGRFTISRDNAKNTVYLQMNSLKPEDTAVYYCAANGHGRVYFGGGNWGQGTQVTVSS,high polyreactivity
3,QVQLVESGGGLVQAGGSLRLSCADSGSIFYVYAMGWYRQAPGKERELVATISSSAGSTYYADSVKGRFTISRDNAKNTVYLQMNSLKPEDTAVYYCNADSFLSWVYRYVYYGSGYWGQGTQVTVSS,low polyreactivity
4,QVQLVETGGGLVQAGGSLRLSCAASGFTFWYNDMGWYRQPPGKEREFVAAINSGGSTNDADSVKGRFTISRDNAKNTVYLQMNSLKPEDTAVYYCNADWFTPAQPWYRYFIRYDYWGQGTQVTVSS,low polyreactivity
5,QVQIVESGGGLVQAGGSLRLSCAASGSIFSYYAMGWYRQAPGKERELVAGITGGGSTDYADSVKGRFTISRDNAKITVYLQMISLKPEDTAVYYCSTDGKPSFYSFDYCGQGTQVTVSS,low polyreactivity
6,QVQLVESGGGLVQAGGSLRLSCAASGGILHYYAMGWYRQAPGKERELVAAISWSGGSTYYADSVKGRFTISRDNAKNTVYLQMNSLKPEDTAVYYCNKVGVAYIFGWMDYWGQGTQVTVSS,high polyreactivity
7,QVQLVESGGGLVQAGGSLRLICAASGRTFYNAMGWYRQAPGKERELVAAISSAGRTYYADSVKGRFTISRDNAKNTVYLQMNSLKPEDTAVYYCAATAFSYYPYHGDYWGQGTQVTVSS,high polyreactivity
8,QVQLVESGGGLVQAGGSLRLSCAASGISFLDNALGWYRQATGKERELVAAYADSVKGRFTISRDNAKNTVYLQMNSLKPEDTAVYYCNAGWIRNYGFSLVTYDYWGQGTQVTVSS,low polyreactivity
9,QVQLQESGGGLVKAGGSLRLSCAASGNISNHNDMGWYRQAPGKESEFVAGITAGGITNYADSVKGRFTISRDNAKNTVYLQMNSLKPEDTAVYYCAAYPDYAKSYGYWGQGTQATVSS,low polyreactivity
10,QVQLVESGGGLVQAGGSLRLSCAASGFTFRQYALGWYRQAPGKERELVAAISSGGSTYYADSVKGRFTISRDNAKNTVYLQMNSLKPEDTAVYYCNAVARYYVAYDMYWGQGTQVTVSS,high polyreactivity
11,QVQLVESGGGLVQAGGSLRLSCAASGLTFFYYAMGWYRQAPGKERELVASITWRSGSTYYADSVKGRFTISRDNAKNTVYLQMNSLKPEDTAVYYCAAYPYTYLQLMDYWGQGTQVTVSS,high polyreactivity
12,QVQLVESGGGLVQAGGSLRLSCAASGSTFSNYALGWYSQAPGKERELVAAITSRGGRTYYADSVKGRFTISRDNAKNTVYLQMNSLKPEDTAVYYCAARVGSGRAIDLYYYWGQGTQVTVSS,low polyreactivity
13,QVQIVESGGGLVQAGGSLRLSCAASGITFSSYAMGWYRQAPGKERELVAAITRTGGRTYYADSVKGRFTISRDNAKNTVYLQMNSLKPEDTAVYYCAAYYIAYYYWGQGTQVTVSS,high polyreactivity
14,QVQLVESGGGLVQAGGSLRLSCAASGSNFFLYAMGWYRQAPGKEREFVAAITGTADSTYYADSVKGRFTISRDDAKNTVYLQMNSLKPEDTAVYYCATDYWSSVKLDDYWGQGTQVTVSS,low polyreactivity
15,QVQLVESGGGLVQAGGSLRLSCAASGYTFQHYGMGWYRQAPGKERELVAAITRRGSGTYYADSVKGRFTISRDNAKNTVYLQMNRLKPEDTAVYYCAAAVGHGVDYWGQGTQVTVSS,high polyreactivity
16,QVQLVESGGGLVQAGGSLRLSSAASGSIFKYNAMGWYRQAPGEERELVAAIRWSGGSTYYADSVKGRFTISRDNAKNTVYLQMNSLKPEDTAVYYCAAEYFNQNTRQGYDYWGQGSQVTVSS,low polyreactivity
17,QVQLVESGGGLVQAGGSLRLSCAASGRTFRINAMGWYRQAPGKEREFVASIRYSGGSTYYADSVKGRFTISRDNAKNTVYLQMNSLKPEDTAVYYCAAVRSYYRGYDYWGQGTQVTVSS,high polyreactivity
18,QVQLVESGGALVQAGGSLRLSCAASGSIFRYYAMGWYRQAPVKERELVAAIDFSGGRTYYADSVKGRFTISRDNAKNTVYLQMNRLKPEDTAVYDCARKYTTAYGSTFYYWGQGTQVSVSS,high polyreactivity
19,QVQLVESGGGLVQAGGSLRLSCAASGRIFPTYAMGWSRQAPGKERELVAAISRRTTRTYYADSVKGRFTISRDNAKNTVYLQMNSLKPEDTAVYYCAARLYSSVVRYRYGYWGQGTQVTVSS,high polyreactivity
20,QVQLVESGGGLVQAGGSLRLSCSASGFTFYRNAMGWYRQAPGKERELVASISRSGGSTYYADSVKGRFTISRDNAKNTVYLQMNSLKPEDTAVYYCAADLCWIYPHKYYYWGQGTQVTVSS,high polyreactivity
21,QVQLVESGGGLLQAGGSLRLSCAASGFTISYNVMGWYRQAPGKERELVAAITYSGGSTYYADSVKGRFTISRDNAKNTVYLQMNSLKPEDTAVYYCAAENGMPMDYWGQGTQVTVSS,low polyreactivity
22,QVQLVESGGGLVQAGGSLRLSCAASGFIFSLYAMGWYRQAPGKERELVAAINWNGGRTYYADSVKGRFTISRDNAKNTVYLQMNSLKPEDTAVYYCAKLGYLGLDYWGQGTQVTVSS,high polyreactivity

row,Sequence,polyreactivity (PSR sort gate)
1,QDQLVESGGGLVQAGGSLRLSCAASGYTFAYYAMGWYRQAPGKERELVARITSGGRTYYADSVKGRFTISRDNAKNTVYLQMNSLKPEDTAVYYCNAAWPFRYRRYDYWGQGTQVSVSS,high polyreactivity
2,QDQLVESGGGLVQAGGSLSLICAASGFNFALYAMGWYRQAPGKERELVAAINWSGGRTYYADSVKGRFTISRDNAKNTVYLQMNSLKPEDTAVYYCNRRAFSPYAANYYYWGQGTQVTVSS,high polyreactivity
3,QVQLVESGGGLVQAGGSLRLSCAASGFIFESTAMGWYRQAPGKERELVAGISNGDSTDYADSVKGRFTISRDNAKNTCYLQMNSLNPEDTAVYYCNAELWYSPYSQTTVRYDYWGQVTQVTVSS,low polyreactivity
4,QVQLEESGGGLVQAGGSLRLSCAASGFNFFRNTMGGYRQAPGKERELVAGIRYSGGSTYYADSVKGRFTISRDNAKNTVYLQMNSLKPEDTAVYYCAARSHRRLMYYWGQGTQVTVSS,high polyreactivity
5,QVQLGESCGRLVQAGGSLRLSCADSGLTFSVYAMGWYRQSPGKETELVAAISYSGDSTYADSVKGRFTISRDNAKNTVYLQMNSLKPEDTAGYYCHAPLVHQGYRRWYDYWGQGTQVTVSS,low polyreactivity
6,QVQRVESGGCLVQAGGSLRLSCAASGRTFSYYTMGWYRQAPGKEREFVATINTSGGSTYYADSVKGRFTISRDNAKNTVYLQMNSLKPEDTAVYYCAADVYSFLSISYQWYRMDYWGQGTQVTVSS,low polyreactivity
7,QVQLVESGGGLVQAGGSLRLSCAASGFIFYYYDMGWYRQAPGKERELVAAITYDGGSTYYADSVKGRFTISRDNAKNTVYLQMNSLKPEDTAVYYCNAVYGQYYDYWGQGTQVTVSS,low polyreactivity
8,QVQLVESGGGLVQAGGSLRLSCAASGRIFFYNAMGWYRQAPGKETELVAAISSSGGSTSYADSVKGRFTISRDIAKNTVYLHMNSLKPEDTAVYYCAVDDPYYEKYDYWGQGTQVTVSS,low polyreactivity
9,QVQLVESGGGLVQAGGRLRLSCAASGRTFFGYAMGWYRQAPGKERELVAAITSSGGRTYYADSVKGRFTISRDNAKNTVYLQMNSLKPEDTAVYYCNTVLSFRSVNIYRGRGDYWGQGTQVTVSS,high polyreactivity
10,QVQLVESGGGLVQAGGSLRLSCAASGRTFSSNAKGWYRQAPGKERELVASISFRGGRTYYADSVKGRFTISRDNAKNTVYLQMNSLKPEDTAVYYCVSGTIRTGYGYWGQGTQVTVSS,high polyreactivity
11,QVQLVESGGGLVHAGGSLRLSCAASGSIFRPYAMGWYRQAPGKERELVAAISRRGGSTYYADSVKGRFTISRDNAKNTVYLQLISLKPEDTAVYYCAADHSGPSPYGYGYWGQGTQVTVSS,high polyreactivity
12,QVQLVESGGGLVQAGGSLRLSCAASGSIFLASAMGWYRQAPGKERELVAAITAGTGSTYYADSVKGRFTISRDNAKNTVYLQMNSLKPEDTAVYYCAKAVSLFRGPFSSFDYWGQGTQVTVSS,low polyreactivity
13,QVQLVESGGGLVQAGGSLRLSCAASGSIFRYNAMGWYRQAPGKERELVAAIDWSGGTYYADSVKGRFTISRDNAKNTVYLQMNSLKPEDTAVYYCNARGSTYSSYWGYDYWGQGTQVTVSS,low polyreactivity
14,QVQLVESGGGLVQAGGSLRLSCAASGSTFVSNAMGWSRQAPGKERELVAAITRRGGSTYYADSVKGRFTISRDNAKNTVYLQMNSLKPEDTAVYYCAAYSTLTPAYEYWGQGTQVTVSS,high polyreactivity
15,QVQQQESGGGLVQAGGSLRRSCAASGSIFSHWAMGWYRQTPGKERELVASITAGGNNNYADSVKGRFTISRDNAKNTVYLPMNSLKPEDTAVYYCNRRYPGPDSFEHYYYYRYDYWGQGTQVTVSS,low polyreactivity
16,QVQLVESGGGLVQAGGSLRLSCAASGSIFRPYAMGWYRQAPGKERELVAAISSSSGRTYYADSVKGRFTISRDNAKNTVYLQMNSLKPEDTAVYYCAADRYSFRGDYYWGQGTQVTVSS,low polyreactivity
17,QVQLVESGGGLVQAAGSLRLSSAASGLIFPYYVMGWYRQAPGKERELVAAISVSGGNTYYADSVKGRFTITRDNAKYTVYLQLNSLKPVDTAVYYSAADHYRGSYDYWGQGSQVTVSS,high polyreactivity
18,QVQLVESVGGLVQAGGSLRLSCAASGRTFRYYAMGWYRQAPGKERELVAAISKTGGSTYYADSVKGRFTISRDNAKNTVYLQMNSLKPEDTAVYYCAAQSGWGYSTYYYWGQGTQVTVSS,high polyreactivity
19,QVQLVESGGGIVQAGGSLRLSCAASGSTFDVYAMGWYRQAPGKERELVAVINTSGTRTYYADSVKGRFTISRDNAKNTVYLQMNSLKPEDTAVYYCAVSYLSTLGRSRYDYWGQGTQVTVSS,low polyreactivity
20,QVQLVESGGGLVQAGGSLRLSCAASGRIFYKNVMGWYRQAPGKESELVATITRRGGRTFYADSVKGRFTISRDNAKNTVYLQMNSLKPEDTAVYYCATRRRIRSSFYYDIDYWGQGTQVTVSS,high polyreactivity
21,QVQLVESGGGLVQAGGSLRLSCAASGRTFRTNDMGWYRQAPGKERELVARITRGGSTYADSVKGRFTISRDNAKNTVYLHMNSLKPEDTAVYYCAAVTKLSGIRYNYWGQGTQVTVSS,low polyreactivity
